Assay [1] addresses CD20 on Daudi and Raji cells (UniProt P11836).
The target in assay [2] is recombinant extracellular domain of EGFR (UniProt P00533). Nature of the assay: sandwich ELISA: EGFR extracellular domain coated, detection with anti-idiotype 2F2 SAB1.1.
The target of assay [3] is CH2-CH3 construct G4-K370Q (human). Nature of the assay: native MS, monomer-dimer equilibrium of CH2-CH3 fragment.
The target in assay [4] is IgG1Δhinge fragment of IgG1-7D8-K409R. Nature of the assay: native MS, CH2-CH3 fragment mixed with IgG1Δhinge fragment for 24 hours, heterodimer.
The target in assay [5] is CH2-CH3 construct G1-F405L (human). Nature of the assay: native MS, monomer-dimer equilibrium of CH2-CH3 fragment, homodimer.
The target in assay [6] is CH2-CH3 construct G1-K370T (human). Nature of the assay: native MS, monomer-dimer equilibrium of CH2-CH3 fragment.
In assay [7] the target is CH2-CH3 construct G4-S364D (human). The description is as above.
Assay [8] has as its target CH2-CH3 construct G1-K409R (human). Nature of the assay: native MS, monomer-dimer equilibrium of CH2-CH3 fragment, homodimer.
For assay [9] the target is unchanged. Nature of the assay: native MS, monomer-dimer equilibrium of CH2-CH3 fragment.
Assay [10] addresses CH2-CH3 construct G4-K370E (human). The assay is described as above.
Assay [11] has as its target CD20 on Daudi and Raji cells (UniProt P11836). The source holds these as a separate data set.

pKd: −log10 of the molar value. Where two headings read alike, the source gives them in different places.

Results on eight substances are retold here after US20140303356A1.

For the substance “bispecific antibody generated by 2-MEA-induced Fab-arm exchange between IgG1-2F8-F405L and IgG1-7D8-K409R (from UniProt P01857 1-330)”, the EC50 (read off the curve) in assay [1] was 2 µg/mL; in assay [2], 0.4 µg/mL.

Regarding CH2-CH3 construct G4-K370Q, in [3], the pKd is 7.96 and the fold-difference (against wild type CH2-CH3 fragment) was found to be 4.3 fold.

For CH2-CH3 construct G1-F405L, the values for the pKd in assay [4] and in [5] were 7.92 and 6.07, respectively.

With CH2-CH3 construct G1-K370T, in assay [6], the pKd is 7.35 and the fold-difference (against wild type CH2-CH3 fragment) was found to be 0.07 fold.

In the case of CH2-CH3 construct G4-S364D, in assay [7], the pKd was 7.33 and the fold-difference (against wild type CH2-CH3 fragment) was determined as 1.02 fold.

Regarding CH2-CH3 construct G1-K409R, in [8], the pKd was 6.96. In assay [9], the pKd is 6.96 and the fold-difference (against wild type CH2-CH3 fragment) was 0.03 fold.

As to CH2-CH3 construct G4-K370E, in assay [10], the pKd is 8.70 and the fold-difference (against wild type CH2-CH3 fragment) turned out to be 24 fold.

For “IgG1-7D8 (from UniProt P01857 1-330) (antibody)”, the EC50 (read off the curve) came to 1 µg/mL in assay [11] and 0.5 µg/mL in assay [1].
